Results taken from the DeepSol protein solubility set.

Assay: soluble on expression in E. coli; label from the status in PepcDB or PDB records

Sequence | soluble on expression in E. coli
MVSEREQLACLVQQWNENRLDLFHLSYPTEDLEVEGVMRFYFQDGGEKVLTKCVRVSSTATTRAVVDALSEKFLPDLKMLSNDTYSLWEVHENGEERKLLDEEKPLVVQLQWHKDDREGRFLLKKDAAPPVSLLNLQEADQKNTRFAKKKDKEPKKKNQKNFVQVNGGREEAQSQDDIYKQVPFNTFTRTISNPEAVMRKRREKKLETKLKEMMFGGSLKVYGGEIVPTRPYVSILAEINENADRILGAALEKYGLEHSKDDFILVEVSNDDDRKSMSDLREIDGRPIPPTECPLFEMTARSGNGENGFDSFLAIKRKPHDYQVPSTSVVAPSSVTLPMSPLTSLPPQIHNLPVLIVMNNDGHLSTHRITLHEGVTEVGSDSQMSNFSQHNIYLDGPDIRGRHAAIAFMEGVVTLTPSTRDAYLEVNGHQLMQTEILRDGDHIRIGADHSFKFSTSSSQANQINSTNISNSNQRHFQQQTFYPEMADSRASTARCAPSDYCSLPQQNDYYPPSMSGSSVSSSRQEDLMMHSNNNILPPYSTKSAQEPLQLPLSIQIGDYNVWDFLAEVMSNRAATSSEMSTFRLSPAYSLYLALRSFHTHNKPYSVQFFSRIESNFKQIAQECSSKDDLIFWLANASEFNHLVERDTELKASRYGKISVEIERIFRRLVAVLQSVIRPAARALLDIHLNDHDATGDVIHLLDTTMRQARICGLNAALTIQLCGHLLHMVNAFVFNSLVSVNLPAAQLNTRLGKCLQYRIESIHRFCERMGVEMAAECHLDRSRQAANLLATQKNDVAALGSTCYKLNSLQVVHILSGFEPDDGEIPCDDDVVDRICRLAEKQADKLTLEDGQRVTLEESDELNLPFLIPQDGYFVEQFRTVPDGLWQYLQQLQHRRLCHTVSLTPAPPAAMTHSMHAMHIGASDAHYHQHQHQQQQNPIVRSVSQTTLTSIPTTQFGDSFGSAVSDTISKVTLRKNGGGIGLSIVAAQGVGDRQMGIYVKKVVEGTPAAHDGRLETGDQLLSVNGHSLIGISQEEFVFQ | not soluble
FDIALTGREGKKIGAAFIVGDSEEVLKRSHQIILNPYEGHEEAHRNILDRRNWESIKEFALLDGVFVIDETGIVRAAGRYLDVDGKNIDIEKGLGGRHVSAAAISRDTVAISVTVSESGGVLRVYKDAKETICMESLQPASRYV | not soluble
MPIATVCTWPAETEGGSTVVAADHASNYARKLGIQRDQLIQEWGWDEDTDDDIRAAIEEACGGELLDEDTDEVIDVVLLWWRDGDGDLVDTLMDAIGPLAEDGVIWVVTPKTGQPGHVLPAEIAEAAPTAGLMPTSSVNLGNWSASRLVQPKSRAGKR | soluble
MGSDKIHHHHHHMRNLNEKMKDIFERSVEDIKERNQNLLRPEHILLQILYDENEATKVLKDLNVNVEEVITELEDYIDSQYGIYYGFSDQVYVSKELSYILELARKEARLFKQKDIGPLHFLLGLLRDGSTHAARVLKKYGVDYEKVLQTVKEHEEEYAAEQSPLTAFATDLTKLAKEGKVGPIIGRDREIERVIEILMRKTKNNPILIGDPGVGKTAIVEGLAQRIVEGKVPDPLKDVRILMVDLGRMIAGTKYRGEFEERLKSFLDEVMKQKEKTILFIDEIHTLVGAGAAEGAMDAANMLKPALARGEIRVIGATHWMSTENT | not soluble
MSLSSFPDVPGWVKPSVDYLINKNVLSGMPDGTFSPNLEIDRGSSAKVMAKILELPIDQSAKPSFDDSKSHWAAPYIAAIEKAGVIKGDGKGNFNPTGKLTRGAMASMLVHAYKLQEKVTGNPPTVFNDLKDHWSEKYVNILVELGISNGYGDDNWKPDQTITRAETVSLVARTDEGHHHHHH | not soluble
MAHHHHHHMYVFRFHISSFHSFLVNFLQPSRGVGEPSRLLDHLETHPSYMRRVTSTAVHRTVSSVLSPALLPSFNGTLLLSVCFASCSAAPVRNLYKRLGLDHKATSEEVKAAYRQRALECHPDVVDDNRKAQAEVDFRAVSEAYDVLIDPQKRKEHDKALGLERTVPPAKKQQEGEGVGCDSKGSFNRGVTRPRNRKPFVRGDADRNFREAFHGMSLDQVLFRERLRQRRMQKQMEEKAKEGDDGSPAGREESIRRVAAAAAERFAEKVRRQYGPGMLRHARVYTSLSRDPQPPPSDYMPFRPFHGWTVPNGVRTPPEPTLGPTAKVEDVKDVQLAEPAVGDASHQRKLPKHFPVVQAPDGSSLLREEAIACMERERRLPHNMGKLYSYHRPY | not soluble
MSLTIEDVAKLAGVSIATVSRVINGSGYVSEKTRYKVWKAIEELGYKPEISAKLLASKGKLFNIYVFASKRILSPLQNNGILGEFYGVIIRAIEENCGRLGMNVELKMLENFSESNGADGYIFIGGDLSEKTLKEIKSRKKPFVLVDHYIPGERVDCVISDGYDGAVYATNYLISKGFKRIVHVHGPLHPYGFKMRYDGYKDAMEKAGLMPRFYECDDTEEGTRKVIDIMLNSYGTPEAIFTSNDSIAFWVIKRLKEHNIKVPDDVSVIGFDDIVDAENFDPPLTTLRVFKYEMGCLACKRLHELLTGINPHPVRILVFTQFVKRKSTKEGHHHHHH | not soluble
SSATPIVQFQGESNCLKCFRYRLNDKHRHLFDLISSTWHWASPKAPHKHAIVTVTYHSEEQRQQFLNVVKIPPTIRHKLGFMSMHLL | soluble
MGSDKIHHHHHHMNNLYPYGAPDSNLYARKQEEYDQQIAEAILAGIKREATAIELYRRLADEAPSEQHQHDIRQALENKQASLTQFTNAYRILTGQQPQLEVDDVSFYRFHEGLQKAYEIEVEGYEEYERSSALTENPHVQHAFWTALNTEYENTTRLYRSLHEEADHRVTDHGPRPFVVNIEDETKRNRAFRRALWTGDHLQVTLMSIQVGEDIGLEIHPHLDQFLRVEEGRGLVQMGHRQDNLHFQEEVFDDYAILIPAGTWHNVRNTGNRPLKLYSIYAPPQHPHGTVHETKAIAMAAEEHHHL | not soluble
MAHHHHHHMTSFKDCLREVREAATEHLEGYRGGDTEKALQHIPREEALTTISLVAIRLLEQELPKRGAGNDASQHELHAQLRACRKALKSHSARSAAGDEGTSDKKRRRTEESTEAPTSSSYRGSATADRSGTSNSIELGQYASSDAFDQNEQKRMKFARLMGGAKVAAQGTGGAGGHSRHNTFAASNAELKRMNANLESQFESAMSHKGKKGLGA | soluble
MSLHGELDKIYETLALAERRGPGPVDLLLCCGDFQAVRNEADLRCMAVPPKYRHMQTFYRYYSGEKKAPVLTLFIGGNHEASNHLQELPYGGWVAPNIYYLGLAGVVKYRGVRIGGISGIFKSHDYRKGHFECPPYNSSTIRSIYHVRNIEVYKLKQLKQPIDIFLSHDWPRSIYHYGNKKQLLKTKSFFRQEVENNTLGSPAASELLEHLKPTYWFSAHLHVKFAALMQHQAKDKGQTARATKFLALDKCLPHRDFLQILEIEHDPSAPDYLEYDIEWLTILRATDDLINVTGRLWNMPENNGLHARWDYSATEEGMKEVLEKLNHDLKVPCNFSVTAACYDPSKPQTEGHHHHHH | soluble
MGSDKIHHHHHHMKVTFGQQTTKVKQLADLLSQEISMGKYKSDCTLPSINKLSREYQVSRDTVFKAFIDLKDRGIIDSTPGKGYYVTNKLTNILLLLDEYSPFKYSLYNSFIKKLSINYKVDLLFHQYNERLFNTILRESIGRYNKYIVMNFDNEKLSPHLYKIDSSKLLLLDFGKFDKKDYSYVCQDFDDSFYHALAALKEHLRKYQRLVLLFPEDIKHPRSSCQYFNCFCQDYHIDSAIVENTDRIQVRKGEVYIAIRQIEVVNIIKQSRTTGLKCGEDFGLIAYNDTPAYEVIDQGITVLSINWEELGRKAAEFVLTGQEIRTYLPTEVHLRNSI | not soluble
MSDLHIPGTQSTPAIQGDWQAGRLSMQGDSYPENSYELFGQVIDWVERFLADGQRPLELDLRLLYLNTSSIKAMMDILDLLEEAHQGGRPVSLRWHYDRRNERVAELAEEFREDCSFPFAIQAHDE | not soluble
MGSDKIHHHHHHMKISEFEGPLDLLLHLIRQNKMDIYDIPIAAITQQYLDYLHSMRALKLDIAGDYLVMAATLMTIKSRFLLPQPEPDEMDEDNEDDDPRDSLVAELLAYKVYQEAAGELREKEQARHQHFTREAMLVPADLSAPKLTAGITLDDLQAAFRQLVAKRRRVRPLTKTVVAETINIDERMTQITTQLQHQPQGLDFADLFTVSASDEMLVTTFMAVLELTKQDQVALQQAEPLSPIHLYLRQDEQHDEH | not soluble
MDVRQVLHMKGGAGENSYAMNSFIQRQVISITKPITEAAITALYSGDTVTTRLAIADLGCSSGPNALFAVTELIKTVEELRKKMGRENSPEYQIFLNDLPGNDFNAIFRSLPIENDVDGVCFINGVPGSFYGRLFPRNTLHFIHSSYSLMWLSQVPIGIESNKGNIYMANTCPQSVLNAYYKQFQEDHALFLRCRAQEVVPGGRMVLTILGRRSEDRASTECCLIWQLLAMALNQMVSEGLIEEEKMDKFNIPQYTPSPTEVEAEILKEGSFLIDHIEASEIYWSSCTKDGDGGGSVEEEGYNVARCMRAVAEPLLLDHFGEAIIEDVFHRYKLLIIERMSKEKTKFINVIVSLIRKSD | soluble
SEHPQPVTTQIEKSVNTALNKNYVFNKADYQYTLTNPSLGKIVGGILYPNATGSTTVKISDKSGKIIKEVPLSVTASTEDNFTKLLDKWNDVTIGNYVYDTNDSNMQKLNQKLDETNAKNIEAIKLDSNRTFLWKDLDNLNNSAQLTATYRRLEDLAKQITNPHSTIYKNEKAIRTVKESLAWLHQNFYNVNKDIEGSANWWDFEIGVPRSITGTLSLMNNYFTDAEIKTYTDPIEHFVPDAEYFRKTLVNPFKALGGNLVDMGRVKIIEGLLRKDNTIIEKTSHSLKNLFTTATKAEGFYADGSYIDHTNVAYTGAYGNVLIDGLTQLLPIIQETDYKISNQELDMVYKWINQSFLPLIVKGELMDMSRGRSISREAASSHAAAVEVLRGFLRLANMSNEERNLDLKSTIKTIITSNKFYNVFNNLKSYSDIANMNKLLNDSTVATKPLKSNLSTFNSMDRLAYYNAKKDFGFALSLHSKRTLNYEGMNDENTRGWYTGDGMFYIYNSDQSHYSNHFWPTVNPYKMAGTTEKDAKREDTTKEFMSKHSKDAKEKTGQVTGTSDFVGSVKLNDHFALAAMDFTNWDRTLTAQKGWVILNDKIVFLGSNIKNTNGIGNVSTTIDQRKDDSKTPYTTYVNGKTIDLKQASSQQFTDTKSVFLESKEPGRNIGYIFFKNSTIDIERKEQTGTWNSINRTSKNTSIVSNPFITISQKHDNKGDSYGYMMVPNIDRTSFDKLANSKEVELLENSSKQQVIYDKNSQTWAVIKHDNQESLINNQFKMNKAGLYLVQKVGNDYQNVYYQPQTMTKTDQLAI | soluble
MGSDKIHHHHHHMLTVSDVSLRFSDRKLFDEVNINFTAGNTYGLIGANGAGKSTFLKILAGDIEPTTGHIALGPDERLSVLRQNHFDYEDERVIDVVIMGNETLYSIMKEKDAIYMKEDFSDEDGVRAAELEGEFAELGGWEAESEASQLLQNLNISEELHYQNMSELANGDKVKVLLAKALFGKPDVLLLDEPTNGLDIQSITWLEDFLIDFENTVIVVSHDRHFLNKVCTHMADLDFGKIKLFVGNYDFWKESSELAARLQADRNAKAEEKIKQLQEFVARFSANASKSKQATSRKKMLDKIELEEIVPSSRKYPFVNFKAEREMGNDLLTVENLSVTIDGEKILDNISFILRPGDKTALIGQNDIQTTALIRALMGDIEYEGTIKWGVTTSRSYLPKDNSRDFASGESILEWLRQFASKEEDDNTFLRGFLGRMLFSGDEVNKSVNVLSGGEKVRVMLSKLMLLKSNVLVLDDPTNHLDLESISSLNDGLKDFKESIIFASHDHEFIQTLANHIIVLSKNGVIDRIDETYDEFLENTEVQAKVAQLWK | not soluble
MRARSDAGGQSVKSRTSNRSRSSRRSRVRSSISALVDNPQARPRELPVLCGWPVVRVEPVCEFVPEPVCGQAEVLGEPAAAHRVTSARRSPSTTVCSRSQKASAVVISSVSSVARVRRASVSSVDATTA | not soluble
